Measured values reported in the DeepSol protein solubility set.

Test: soluble on expression in E. coli; label from the status in PepcDB or PDB records

| Sequence | soluble on expression in E. coli |
| --- | --- |
| RLVLAGNGMAGIRCIEEVLKLNRHMFEIVIFGSEPHPNYNRILLSSVLQGEASLDDITLNSKDWYDKHGITLYTGETVIQIDTDQQQVITDRKRTLSYDKLIVATGSSPHILPIPGADKKGVYGFRTIEDCQALMNMAQHFQKAAVIGAGLLGLEAAVGLQHLGMDVSVIHHSAGIMQKQLDQTAARLLQTELEQKGLTFLLEKDTVSISGATKADRIHFKDGSSLKADLIVMAAGVKPNIELAVSAGIKVNRGIIVNDFMQTSEPNIYAVGECAEHNGTVYGLVAPLYEQGKALASHICGVPCEEYQGSAPSAALKIAGIDVWSAGKIQEDERTTSIKIYDEQAGVYKKALFVDDKLRVILFGDTRDKQRLLDSLLKQRDISIAKKQIIEPETSGPLFESMPSSETICQCNTVTKGAIEDAVHTNSLTTVEEVKHCTKATGSCGGCKPLVEDLLRYMTNSEYTKPASTPSFCSCTDFTEDDIIAELQRRPFTNPAEVMNQLDWKTKNGCSTCVPAIQYYLEMLYPGFVQPEPATEETCILIPQMYGGRTNAEQLRTIANIIEAYSIPDVSITHGQRLKLSGIKPADLPNMKKDLKMPVYTNEHRHALQSIKACTCGQNRSIQQLAAQIERQLEMLPLPAPISISLSCETDCTEAALQDVGAIRTQAGWDIHIGGVRGTHARSGALFCVTENEDSTAGMIKGLIQYYRETDHYLEGVHQWIDRLGIVHIREVLFEEDLRAQLLESLQTDLSLIQNPTVETGAYKK | not soluble |
| AHHHHHHGSVVKRTMTKKFLEEAFAGESMAHMRYLIFAEKAEQEGFPNIAKLFRAIAYAEFVHAKNHFIALGKLGKTPENLQMGIEGETFEVEEMYPVYNKAAEFQGEKEAVRTTHYALEAEKIHAELYRKAKEKAEKGEDIEIKKVYICPICGYTAVDEAPEYCPVCGAPKEKFVVFE | soluble |
| MLDDVLALIREHDRFFITTHLGPDGDAVGSQLALGRFLEKMGKSVAMVNADEVDYNLDWMPGAGDIAVFDGSLGQHEALAEAEVAFVLDTNDEERIGKVGSLVRDATATTVLVDHHLEPEHWFDVFFVREEAAATGELVYEIIDGLAPDLIDEGIATALYTAIMTDTGSFRYSSVTPALHRSVADILERGGIGPAPIHETIYDRKSMPGLRLLGRMLNRIRLRYNGQLGYSVVTQRMVEDTGASWDDKQGFVNYVLSIEDVKTALLFSETDDGAKISFRSEADVRVDQWARHFGGGGHRNAAGAYVKRPTFEKTIETVIDAASDYIAFDARHAPDDDLSPEDQSYLETLLDDPSDSPLEHHHHHH | not soluble |
| MGSDKIHHHHHHADNAPAKVQTALKKMYPKADGIAWSQDGGYYCADFMMNGYEKNVWFNAQGQWQMTQTEWGDTDELSATVYNAYASGPYSGWQVEDVTYVEFPKWQPIIVIKVGQQNVDIQYQLFYSPNGTLLRTRNVSYMGDILGPGTFL | not soluble |
| MGSDKIHHHHHHMKKRLLLNTDDYGWDLDANAAIIDLLQSDSIHNVTLLANYCDSDVLRAISPFQDRASLGIHVCLNSGQALSGSTRSTLHDACGNFYDSKTLFQRAFFGELNYSDVLLEIKSQYYYLSDHGIDITHADSHQHIHQYPFLSGMITQALHEIGVKNIRRCRPLEVKNIRRYLIYFFYQCTKNNLNKFNSPDVLVTDFTHSGFSFSTDVQPILKKLSLSHYSTIEWMCHPAREDKAGSYLQRKKEYDFLKKCDWDILLNGTGIERSQYRYI | not soluble |
| MGSDKIHHHHHHMIEYRIEEAVAKYREFYEFKPVRESAGIEDVKSAIEHTNLKPFATPDDIKKLCLEARENRFHGVCVNPCYVKLAREELEGTDVKVVTVVGFPLGANETRTKAHEAIFAVESGADEIDMVINVGMLKAKEWEYVYEDIRSVVESVKGKVVKVIIETCYLDTEEKIAACVISKLAGAHFVKTSTGFGTGGATAEDVHLMKWIVGDEMGVKASGGIRTFEDAVKMIMYGADRIGTSSGVKIVQGGEERYGG | soluble |
| MLPRFADIFQQGNRWLNWLEKQPEGAVRPVVIESVTKIMACGTTLMGYTNRCCSSPDCCHTKKVCFRCKSRSCPHCVVKAGAQWIQYLLSLVPYCPWQHIVFTLPCQYWSLVFHNRWLLAKMSRIAADVILEICHQADVEPGIFTVIHTWGRDQQWHPHIHLSTTAGGVTSGHTWKNLHFYARKVMSMWRYRITRLLSRKYPYLVMPDALAAEGSSKREWNRFLDTHYRRGWNVNVSRVMDNATHVAVYFGSYLKKPPVPMSRLEHYAGQDEIGLRYNSHRTKREEYLLMSGDESMERFSWHVADKGFRMVRYYVFLSPAKRRLLEEVVYIITETVRKTAMQITWRGMYQRLLKVDPLKCVLCGSQMRFTGLKRGYRLAEQVLMHEPLARMRWCG | not soluble |
| MAVAANKRSVMTLFSSASDMYSHQVRIVLAEKGVSFEVELVDENNLPAELIELNPYKTVPTLVDRELALYDSKIIMEYLDERFPHPPLMPVYPVARGNSRLMIYRIERNWYSLAEKVVNGSPEVAENARNKLRNDLLTLGPVFAEFEYFMSEEFSLIDCYLAPLLWRLPVLGIDLIGPGSKELKVYMNRVFERDSFLASLTEAEREMRLAR | not soluble |
| MHHHHHHSSGVDLGTENLYFQSNAMNFKLNNTLSNEINTLIIGIPEHLNQLERISFNHIDITESLERLKHQHIIGSKVGKIYTTAFDVQDQTYRLITVGLGNLKTRSYQDMLKIWGHLFQYIKSEHIEDTYLLMDSFISKYDQLSDVLMACGIQSERATYEFDHYKSSKKAPFKTNLNLISESLIELDFIHEGISIGQSINLARDFSNMPPNVLTPQTFAEDIVNHFKNTKVKVDVKDYDTLVSEGFGLLQAVGKGSKHKPRLVTITYNGKDKDEAPIALVGKGITYDSGGYSIKTKNGMATMKFDMCGAANVVGIIEAASRLQLPVNIVGVLACAENMINEASMKPDDVFTALSGETVEVMNTDAEGRLVLADAVFYANQYQPSVIMDFATLTGAAIVALGDDKAAAFESNSKVILNDILQISSEVDEMVFELPITATERASIKHSDIADLVNHTNGQGKALFAASFVTHFSGQTPHIHFDIAGPATTNKASYNGPKGPTGFMIPTIVQWLKQQ | soluble |
| MGSDKIHHHHHHMKYRFENHCVDKQCNLHIFADGKAAHSSTPEDGVNAVTHLAALLSPELNDKPWPKTSASLTVAAMNELVGLGIYAEQFGDLAYKDDFMGPLTLAPTVVVQTQKGTEVTINLRRPVGKTPELLAKQAREALALWQDKHQVQLADIESYWGEPMVMKGAPQQQTLLDVFAHFTGIVDPKPVAIGGSTNSKLFPNALSFGPAMPGVEYTGHTEKEFITHKQFMLNLKMYTAAFIELSAVK | not soluble |
| MGSDKIHHHHHHMKGAVTTDVEAGGLRGRMYASRATSDVRPRADAPTFVLIHGIGVSHRYLVRLHHVLAGVADTISIDLPGFGSTPRPDRQLMVADQAAFIHDVLDQAGVGLRVLVGHSMGAQFVLEAALQRPEQVPHVVLMGPVVDVRRRTLPRQILALTKDALLHETPGSNALVFSDYLRCGPLWYLKELRVMMNYRTEERIRGLTTPVMILRGASDPIATGEWCRILARRAPAGTLVEVPGCGHVVQHTGTAQVADAITGFTGLPGSGAPEQTVNRQ | not soluble |
| MGSDKIHHHHHHMDCFYDYHKSLSPDEYVWDYEEFLYYGSDKFIKDVFVDGGVDIALSQPAYLQFFFREPFGNTNEFGTMALKYPYRFIIGTRWDPREGEEGKRQLEEDVRKYRVKPWQMRHVKLYTAEWKEVNGGISRGWRLDSPQAFEFLEFNRELGIDIQVPHKGPTVWPLSKDAFDVHDVDTAASSFPELRFVVTHVGLPRIDDFSWIGVQDKNVYAGLAVATAFIRKRPKYFAEIMAELLFWLGPDRIIFGSDYAIWHPKWIIEDFIKFELPRDLESEYGVELTLENKKKILGENAARLWGIDVEEAKKAVREDQIASRYGAKPRVFKVEG | not soluble |
| MGSSHHHHHHSSGLVPRGSHMNESIVISLGGSVISGDPIDADYMKSFARILEASKYRRVGIVTGGGRTARSYISVLRKLNVNENVLDEIGIYATRMNALSMASLIPGSNPTIPFTVEDAVNLMNTYRFVVMGGTEPGHTTDTVAALLCERSATRTLINVTSVDGVYDMDPHRFANAKRFDRIGYREAIALSTKSSAGAGPNVFMDITALTIAMRSRIRVIVTSRDIDNLEKILKGDRAVSTFIDDDQRS | soluble |
| MGGSHHHHHHGMASALKEKKSQETEVTSTLEQQKICLVLESCLKKNSDEEGSQEKGGDDSQQKFIAHVPVPSQQEIEEALVRRKKMELLQKYASETLQAQSEEARRLLGY | not soluble |
